Read-outs that look alike come from different tables or passages of the source.

Holding throughout (assay): cryo-EM structure
For test [1], the target named is T1, Slh1 helicase subunit of the ribosome quality control trigger complex RQT (wild type) (yeast, UniProt P53327 1-1967).
Test [2] addresses Slh1-K316R, ATPase-deficient Slh1 subunit of K316R-RQT (yeast, UniProt P53327 1-1967, K316R).
Test [3] deals with T1, Slh1 helicase subunit of the ribosome …. The source holds these as a separate data set.

T1 sequence (P53327 whole entry, one chain of several): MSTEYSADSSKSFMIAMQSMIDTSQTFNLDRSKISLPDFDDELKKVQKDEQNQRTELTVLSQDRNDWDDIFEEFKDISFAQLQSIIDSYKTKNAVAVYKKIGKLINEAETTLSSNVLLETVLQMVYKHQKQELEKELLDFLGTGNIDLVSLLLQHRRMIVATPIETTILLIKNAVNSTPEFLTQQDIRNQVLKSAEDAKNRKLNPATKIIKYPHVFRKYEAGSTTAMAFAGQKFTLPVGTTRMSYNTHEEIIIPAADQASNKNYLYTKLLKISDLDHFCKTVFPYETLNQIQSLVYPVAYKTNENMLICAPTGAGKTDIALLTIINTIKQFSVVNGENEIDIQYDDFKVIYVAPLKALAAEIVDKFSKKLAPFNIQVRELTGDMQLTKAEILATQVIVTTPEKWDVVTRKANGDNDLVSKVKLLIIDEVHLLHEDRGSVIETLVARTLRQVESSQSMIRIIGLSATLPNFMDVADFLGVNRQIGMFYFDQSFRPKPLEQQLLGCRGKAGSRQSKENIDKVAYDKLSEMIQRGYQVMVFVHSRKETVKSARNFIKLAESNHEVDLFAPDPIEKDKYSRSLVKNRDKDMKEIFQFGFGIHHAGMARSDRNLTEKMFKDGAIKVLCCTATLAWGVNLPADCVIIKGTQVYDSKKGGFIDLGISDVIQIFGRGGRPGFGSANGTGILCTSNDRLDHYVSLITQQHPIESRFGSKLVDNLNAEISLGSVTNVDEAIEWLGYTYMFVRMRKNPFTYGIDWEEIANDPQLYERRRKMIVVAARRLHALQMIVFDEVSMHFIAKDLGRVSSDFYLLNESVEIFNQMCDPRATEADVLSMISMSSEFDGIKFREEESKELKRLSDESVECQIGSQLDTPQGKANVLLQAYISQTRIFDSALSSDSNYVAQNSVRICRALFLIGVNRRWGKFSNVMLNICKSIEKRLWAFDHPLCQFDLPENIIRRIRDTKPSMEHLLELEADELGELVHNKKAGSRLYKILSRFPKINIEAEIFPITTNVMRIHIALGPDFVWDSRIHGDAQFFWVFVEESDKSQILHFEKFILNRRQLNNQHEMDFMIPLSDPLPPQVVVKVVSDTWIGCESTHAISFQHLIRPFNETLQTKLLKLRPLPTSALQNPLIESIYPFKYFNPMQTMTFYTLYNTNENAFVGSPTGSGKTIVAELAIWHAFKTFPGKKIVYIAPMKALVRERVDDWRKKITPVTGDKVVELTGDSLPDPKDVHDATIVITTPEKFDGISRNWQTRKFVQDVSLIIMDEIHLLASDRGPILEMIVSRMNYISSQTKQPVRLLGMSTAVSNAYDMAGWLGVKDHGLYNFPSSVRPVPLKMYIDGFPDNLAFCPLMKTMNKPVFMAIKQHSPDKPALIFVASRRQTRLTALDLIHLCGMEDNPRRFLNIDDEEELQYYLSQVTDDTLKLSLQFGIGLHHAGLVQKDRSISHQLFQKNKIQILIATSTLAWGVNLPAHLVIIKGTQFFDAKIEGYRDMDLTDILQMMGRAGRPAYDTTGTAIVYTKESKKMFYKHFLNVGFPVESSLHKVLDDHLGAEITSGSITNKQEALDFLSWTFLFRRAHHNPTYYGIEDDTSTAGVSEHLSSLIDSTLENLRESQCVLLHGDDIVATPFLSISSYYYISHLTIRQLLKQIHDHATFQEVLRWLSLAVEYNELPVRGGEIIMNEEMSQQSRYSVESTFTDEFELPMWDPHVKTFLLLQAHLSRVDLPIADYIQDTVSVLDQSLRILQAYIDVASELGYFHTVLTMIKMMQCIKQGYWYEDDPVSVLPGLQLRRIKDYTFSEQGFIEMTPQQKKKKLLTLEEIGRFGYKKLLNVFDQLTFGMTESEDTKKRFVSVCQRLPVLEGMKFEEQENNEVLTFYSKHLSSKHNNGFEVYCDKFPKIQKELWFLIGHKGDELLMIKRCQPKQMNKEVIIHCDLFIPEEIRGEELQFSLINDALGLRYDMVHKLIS
Chain of Slh1-K316R, ATPase-deficient Slh1 subunit of K316R-RQT (P53327 whole entry K316R): as the sequence (P53327 whole entry, one chain of several) above, with K316R counted along it

B1: Cue3, ubiquitin-binding CUE domain containing subunit of RQT (natural protein, yeast, UniProt P53137 1-624, looked up)
chain: MLSRYNRVIEINGGNADISLPIVKFPPFKLRAQLIEKDPVVWLHLIETYVTYFEYLMQGANVELLDESTLDHLRLFLRTYLHEIADEEGKLLSLGINHDVSEQLYLLKGWIFSLIKKCGLLHLQIFGDSLWNLIKVYVRRNPDSIRGLIDGSLKPRINTQRVQLDKSYQVQQHLKQLIESGKFKRIDLRCVEDLLSAKSMQPNKFAENFFTANWIEILEALWAKGQGRGHKEARELIIISLFSVSADRLLKITKELGISNFETLALYPLLGTMLINEGVHKRLPDLKSKLLFLNLGGLSMDEGDHMSYPTSSGTEVNEEQLSALMELFPQFSKYQLSQTLLAYDNNIELVTNKIFEDPTIIEAFSREPAEEEVEPVSDGDNASFTEELSILDRGDSSKNKELDKKIISEGVPDELRNKTLTRALKLLYEADEDERDDTYDEADVNRSDPSKRIGLQEDEESYDTKDDSNEVRQDHNYHIVEAYLWNLLKEDPKLFERSKRGTKVRKTMKEMTSWSDEKIEGWCRMLERSPTRARLLEKKFMFKGNSKTGKTSYVHNRDSQNDGNVVKEQAKQKKSENIKKHEPQSTEQKKRQHAKNEKRKGARANHNRKKGHDKKLARAGNNAI
Regarding B1, the binding result in test [1] and in test [2] was “binds” in each case.

B2: ribosomal protein uS3 of the 40S subunit (natural protein, UniProt P05750 1-240, looked up)
chain: MVALISKKRKLVADGVFYAELNEFFTRELAEEGYSGVEVRVTPTKTEVIIRATRTQDVLGENGRRINELTLLVQKRFKYAPGTIVLYAERVQDRGLSAVAQAESMKFKLLNGLAIRRAAYGVVRYVMESGAKGCEVVVSGKLRAARAKAMKFADGFLIHSGQPVNDFIDTATRHVLMRQGVLGIKVKIMRDPAKSRTGPKALPDAVTIIEPKEEEPILAPSVKDYRPAEETEAQAEPVEA
Regarding B2, the binding result in test [3] is listed as “binds”.

B3: ribosomal protein uS5 of the 40S subunit (natural protein, UniProt P25443 1-254, looked up)
chain: MSAPEAQQQKRGGFGGRNRGRPNRRGPRNTEEKGWVPVTKLGRLVKAGKITTIEEIFLHSLPVKEFQIIDTLLPGLQDEVMNIKPVQKQTRAGQRTRFKAVVVVGDSNGHVGLGIKTAKEVAGAIRAGIIIAKLSVIPIRRGYWGTNLGQPHSLATKTTGKCGSVTVRLIPAPRGSGIVASPAVKKLLQLAGVEDVYTQSNGKTRTLENTLKAAFVAIGNTYGFLTPNLWAEQPLPVSPLDIYSDEASAQKKRF
For the molecule B3, the binding result in test [3] is “binds”.

B4: RACK1 (Asc1) of the 40S head (natural protein, UniProt P38011 1-319, looked up)
chain: MASNEVLVLRGTLEGHNGWVTSLATSAGQPNLLLSASRDKTLISWKLTGDDQKFGVPVRSFKGHSHIVQDCTLTADGAYALSASWDKTLRLWDVATGETYQRFVGHKSDVMSVDIDKKASMIISGSRDKTIKVWTIKGQCLATLLGHNDWVSQVRVVPNEKADDDSVTIISAGNDKMVKAWNLNQFQIEADFIGHNSNINTLTASPDGTLIASAGKDGEIMLWNLAAKKAMYTLSAQDEVFSLAFSPNRYWLAAATATGIKVFSLDPQYLVDDLRPEFAGYSKAAEPHAVSLAWSADGQTLFAGYTDNVIRVWQVMTAN
In the case of B4, in test [3], the binding result is reported as “binds”.

B5: Rqt4, zinc-finger containing subunit of RQT (natural protein, yeast, UniProt P36119 1-530, looked up)
chain: MTRKQAIDYAIKQVPQILPLEESDVKALCEQVLSTSSDDPEQIASKFLEFLGHEDLSFEFVMKFNELLNQNDKKEEKKTKNVHLEHTAPTSWKNESKQPTNNYINKKGDEKPKKLKDEKKSSTTRPTVQPSNQSTQSNPIKEKKEHRSKGKLQSLQEIDEAIKMLELRDSGSSKNCNCQGTRHPVFDIAPNCLHCGKVVCVIEGLNKGKCGHCHEQLISDNERTQMVEILNQEKNELNGSSSSLSNASNGANVPKKKTKTYKITSGMGKNLFAEQDKLFDFIERKRERERKRNEVLKLQEEKEESEAKERQASEHDHKAEENPELLAAQERLDRLLYFQDTSAERTKIIDNASDFDMNQEVGLWGSARERALALKKQQRNLRKWEKVEKERNGRREKYVVSMNIGSNGKVTMTEVPKDTENVIAGSDDDISDISDEEDISDLKHIHALKSEINTTKSLENLHLQSKAWDYERDKKQFDRPTYVKKNSDTAQQNRKTEEKAHDMQAYDLKSRVQVDQNADASVEQNILAVL
Regarding B5, the binding result in test [1] and in test [2] was “binds” each time.

The values above are taken from publication doi:10.1101/2022.04.19.488791 (bioRxiv, 2022).
